The record followed here is patent US20060079453A1.

Several values for one entry are separate records, joined by “and”; a condition that tells them apart may be missing. Equal entries are not always repeated. Where two headings read alike, the source gives them in different places.

What all share (experiment): competition, purified HLA
For assay [1], the target named is HLA-A*0101 (human).
The target in assay [2] is HLA-A*2902 (human).
The target of assay [3] is HLA-A*3002 (human).
Where [4] appears, read: remark: other sources report otherwise.

On to TLEKLTNTGLY (modifications not checked), for which the IC50 was 0.077 µM in assay [1] (setting [4]) and 0.991 µM in assay [2] (setting [4]).
Turning to ATSNYYIVTY (modifications not checked), the IC50 in assay [1] was determined as 0.428 µM.
For EVDGPGPGY (modifications not checked), the IC50 was found to be 25.8 µM in assay [2] and 5.77 µM in assay [3].
For the molecule FTDLRIVY (modifications not checked), the IC50 in assay [1] was found to be 0.026 µM; in assay [2], 0.813 µM; in assay [3], 8.06 µM.
With RISGVDRYY (modifications not checked), the IC50 in assay [3] amounted to 0.003 µM.
Take EYRHYNYSLY (modifications not checked): the IC50 worked out at 111 µM in assay [1] and 0.956 µM in assay [2].
In turn, RSDSVGPGPGY (modifications not checked) returned an IC50 in assay [2] of 31.2 µM.
In the case of AADAAAAKY (modifications not checked), in assay [1], the IC50 stood at 0.02 µM.
RWGLLLALL (modifications not checked): the IC50 in assay [2] was 61.3 µM; in assay [3], 0.3 µM.
In assay [3], IMVLSFLF (modifications not checked) came in with an IC50 of 30 µM.
For ISEYRHYQY (modifications not checked), the IC50 in assay [1] was 0.04 µM. In other words, the double-digit nanomolar range.
For the molecule WFHISCLTF (modifications not checked), the IC50 in assay [1] (setting [4]) amounted to 85.3 µM; in assay [2] (setting [4]), 0.095 µM; in assay [3] (setting [4]) it was 75.1 µM.
RFLSKISEY (modifications not checked) returned an IC50 in assay [1] of more than 40.3 µM.
As for KYTSFPWL (modifications not checked), the IC50 in assay [2] was more than 172 µM.
For the molecule EVGPGPGLY (modifications not checked), in assay [1], the IC50 was 0.05 µM.
In the case of RSDGPGPGVLY (modifications not checked), the IC50 in assay [2] was 13.2 µM. This lies in the double-digit micromolar range.
In the case of YTAGPGPGY (modifications not checked), the IC50 in assay [1] stood at 0.007 µM.
For the molecule ALFQEYQCY (modifications not checked), the half-inhibitory concentration (IC50) in assay [1] (setting [4]) was more than 42 µM.
Take FTDLTIVY (modifications not checked): the IC50 was 0.016 µM and 0.034 µM in assay [1]; 39 µM in assay [3].
The molecule TLEKITNTELY (modifications not checked) returned an IC50 in assay [2] of 8.4 µM.
For KTLYQSNPY (modifications not checked), in assay [1], the IC50 is 6.91 µM. This lies in the single-digit micromolar range.
In assay [2], TQGPGPGKY (modifications not checked) yielded an IC50 of 36.7 µM.
Regarding TQDGPGPGY (modifications not checked), the figures for the IC50 in assay [2] and in assay [3] were 37.1 µM and 0.541 µM, respectively.
As to RQAKQHTCY (modifications not checked), the IC50 is more than 135 µM in assay [1] and 155 µM in assay [2].
On to TQDLVQEKY (modifications not checked), for which the IC50 in assay [2] worked out at 33.3 µM.
In assay [3], RVLPPNWKY (modifications not checked) registered an IC50 of 0.003 µM.
PTLKEYVLDLY (modifications not checked) displayed an IC50 in assay [2] of 0.805 µM.
Take RQDILDLWVY (modifications not checked): the IC50 was determined as 9 µM in assay [1] and 0.095 µM in assay [3].
AYGPGPGKF (modifications not checked) showed an IC50 in assay [2] of 44.9 µM.
Molecule IYGPGPGLIF (modifications not checked) yielded an IC50 in assay [3] of 6.84 µM.
In the case of YTGPGPGVY (modifications not checked), the IC50 in assay [2] amounted to 2.02 µM; in assay [3] it was 0.0064 µM.
Turning to AYSSWMYSY (modifications not checked), in assay [3], the IC50 was 0.0049 µM.

What is called IC50 is the concentration needed to halve the response being measured.
